# In publication PMC9965484:
# Biological target: Fibroblast activation protein (FAP), recombinant human, carrier-free (BioLegend) (Homo sapiens) (UniProt Q12884)
# Assay: CE-LIF (NECEEM)
# Conditions: CE-LIF/NECEEM: buffer for Kd not stated, CE separation (SELEX) 20 kV, 25 C, specificity: 10 min at 37 C, PBS pH 7.2 as control, AuNP assay: room temperature …
# UniProt Q12884, sequence (Q12884 whole entry): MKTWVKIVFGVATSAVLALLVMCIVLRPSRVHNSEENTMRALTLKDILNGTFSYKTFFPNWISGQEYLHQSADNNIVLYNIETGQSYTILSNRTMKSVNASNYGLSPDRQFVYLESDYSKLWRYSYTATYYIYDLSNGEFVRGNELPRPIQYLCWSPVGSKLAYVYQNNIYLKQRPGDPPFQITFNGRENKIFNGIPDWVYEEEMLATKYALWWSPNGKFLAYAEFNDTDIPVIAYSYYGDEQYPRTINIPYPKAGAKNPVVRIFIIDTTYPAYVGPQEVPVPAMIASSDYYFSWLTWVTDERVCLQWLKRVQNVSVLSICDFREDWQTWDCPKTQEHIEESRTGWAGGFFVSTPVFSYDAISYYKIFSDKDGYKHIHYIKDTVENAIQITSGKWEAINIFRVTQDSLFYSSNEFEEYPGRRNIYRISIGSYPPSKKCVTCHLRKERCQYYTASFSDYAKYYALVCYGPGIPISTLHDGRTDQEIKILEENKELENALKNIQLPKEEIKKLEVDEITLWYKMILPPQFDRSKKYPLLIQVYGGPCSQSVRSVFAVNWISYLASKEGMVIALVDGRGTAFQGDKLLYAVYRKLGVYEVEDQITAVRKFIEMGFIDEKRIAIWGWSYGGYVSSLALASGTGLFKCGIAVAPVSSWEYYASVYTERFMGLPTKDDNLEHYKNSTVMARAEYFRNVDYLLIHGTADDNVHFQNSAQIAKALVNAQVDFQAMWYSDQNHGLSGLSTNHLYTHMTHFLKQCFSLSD
Sequence,Kd [nM],Kd (exact value only in figure) [nM],other results
AGCAGCACAGAGGTCAGATGCCGCAGGCAGCTGCCATTAGTCTCTATCCGTGACGGTATGCCTATGCGTGCTACCGTGAA [AptFAP-A4],500,,
AGCAGCACAGAGGTCAGATGGCAGCTAAGCAGGCGGCTCACAAAACCATTCGCATGCGGCCCTATGCGTGCTACCGTGAA [AptFAP-A5],,> 1000,
AGCAGCACAGAGGTCAGATGGCCACATTAGTCTCACCACTACCTGCGTACCTACCGCCGCCCTATGCGTGCTACCGTGAA [AptFAP-A2],,,"Kd (lowest affinity of the five, exact value only in figure): > 1000 nM"
AGCAGCACAGAGGTCAGATGGCCATCCCCCCGTCCGATGAGTGGTGCTCCTATGCGTTCCCCTATGCGTGCTACCGTGAA [AptFAP-A3],,> 1000,
AGCAGCACAGAGGTCAGATGGCGAAGCGTACCGGCTACCCAGTGACAGTCGCCGTGGGTCCCTATGCGTGCTACCGTGAA [AptFAP-A1],500,,
